Results on one molecule are retold here after article PMC10384657.

For this assay, the target named is MPER25c (spike S2 membrane proximal region peptide) MPER (Severe acute respiratory syndrome coronavirus 2), P0DTC2. Kind of assay: SPR. Particulars: modification not given.

In the case of FGAGAALQIPFAMQMAYRF [PN19 (spike S2 internal fusion peptide)], the Kd came out at 9.44 nM.

One may read the Kd as the equilibrium constant for the complex coming apart. The low end stands for higher affinity, the high end for lower affinity.
